In US20230272045A1 (MONASH UNIVERSITY, published 2023):
Where no end group is shown, it is not given here.

T1: human fibrinogen (human, UniProt P02671 20-644; P02675 31-491; P02679 27-437, limits assumed)
T1 construct: Coated on ELISA plates at 100 nM; also called Fg
T1 sequence (looked up) 1: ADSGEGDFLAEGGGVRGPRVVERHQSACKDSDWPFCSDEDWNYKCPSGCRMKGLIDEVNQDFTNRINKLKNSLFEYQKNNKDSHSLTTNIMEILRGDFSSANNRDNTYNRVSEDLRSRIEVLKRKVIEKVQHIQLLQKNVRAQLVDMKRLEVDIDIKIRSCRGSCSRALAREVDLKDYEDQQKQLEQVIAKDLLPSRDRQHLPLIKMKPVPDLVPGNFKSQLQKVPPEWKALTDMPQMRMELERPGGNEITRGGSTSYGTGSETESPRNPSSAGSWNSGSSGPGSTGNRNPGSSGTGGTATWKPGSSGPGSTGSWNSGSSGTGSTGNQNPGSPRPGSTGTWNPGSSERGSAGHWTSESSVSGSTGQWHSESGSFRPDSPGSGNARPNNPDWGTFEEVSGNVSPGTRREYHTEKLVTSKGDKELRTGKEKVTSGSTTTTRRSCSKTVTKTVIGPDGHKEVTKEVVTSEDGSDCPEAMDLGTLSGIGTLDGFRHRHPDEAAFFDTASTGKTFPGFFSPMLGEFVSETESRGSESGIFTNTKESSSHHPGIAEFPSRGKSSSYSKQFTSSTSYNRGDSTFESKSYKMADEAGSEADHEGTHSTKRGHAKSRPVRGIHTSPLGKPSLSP
T1 sequence (looked up) 2: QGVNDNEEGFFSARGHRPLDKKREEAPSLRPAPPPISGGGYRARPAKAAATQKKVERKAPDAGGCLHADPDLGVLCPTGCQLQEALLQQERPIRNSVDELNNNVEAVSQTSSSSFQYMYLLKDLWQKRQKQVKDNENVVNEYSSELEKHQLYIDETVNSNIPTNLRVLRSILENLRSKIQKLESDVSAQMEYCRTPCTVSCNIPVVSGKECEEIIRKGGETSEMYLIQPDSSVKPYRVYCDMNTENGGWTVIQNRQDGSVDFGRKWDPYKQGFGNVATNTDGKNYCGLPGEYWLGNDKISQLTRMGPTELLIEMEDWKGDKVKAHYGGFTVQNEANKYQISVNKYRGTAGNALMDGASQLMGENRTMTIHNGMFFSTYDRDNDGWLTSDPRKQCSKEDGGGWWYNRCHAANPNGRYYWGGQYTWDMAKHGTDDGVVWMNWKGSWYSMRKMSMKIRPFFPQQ
T1 sequence (looked up) 3: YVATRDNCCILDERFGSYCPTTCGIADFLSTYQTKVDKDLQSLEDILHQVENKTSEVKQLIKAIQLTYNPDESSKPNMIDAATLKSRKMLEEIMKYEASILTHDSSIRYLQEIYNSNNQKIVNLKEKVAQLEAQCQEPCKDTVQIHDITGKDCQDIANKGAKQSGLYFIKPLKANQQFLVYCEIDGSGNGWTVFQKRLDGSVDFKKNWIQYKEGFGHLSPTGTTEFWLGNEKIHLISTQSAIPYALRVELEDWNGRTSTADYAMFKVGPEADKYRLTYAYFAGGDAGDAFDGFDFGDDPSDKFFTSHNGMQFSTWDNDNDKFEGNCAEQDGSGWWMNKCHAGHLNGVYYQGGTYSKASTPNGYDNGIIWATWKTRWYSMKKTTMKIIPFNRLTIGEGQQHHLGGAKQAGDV


Assays:
human tenascin C [1] = target: T2, human tenascin C (human, UniProt P24821 23-2201, limits assumed); test: ELISA, one site specific binding fit
T2 construct: Coated on ELISA plates at 100 nM; also called TnC; Tnc

human plasma fibronectin [2] = target: T3, human plasma fibronectin (human, UniProt P02751-8 32-2296, limits assumed); test: ELISA, one site specific binding fit
T3 construct: Coated on ELISA plates at 100 nM; also called Fn

human fibrinogen [3] = target: T1, human fibrinogen; test: ELISA, one site specific binding fit
human vitronectin [4] = target: T4, human vitronectin (human, UniProt P04004 20-478); test: ELISA, one site specific binding fit
T4 construct: Coated on ELISA plates at 100 nM; also called Vn

human plasma fibronectin [5] = target: T3, human plasma fibronectin; test: ELISA of fragments
human fibrinogen [6] = target: T1, human fibrinogen; test: ELISA of fragments
human vitronectin [7] = target: T4, human vitronectin; test: ELISA of fragments
human tenascin C [8] = target: T2, human tenascin C; test: ELISA; ECM protein coated at 100 nM, soluble protein 0-100 nM, one-site fit
Experimental: (§1) ELISA plates (Medium binding, Greiner bio-one) were coated with 100 nM of ECM proteins in 50 μl of PBS for 1 h at 37° C.; human plasma fibronectin (Sigma), human vitronectin (Peprotech), human tenascin C (R&D Systems), human fibrinogen (Enzyme Research Laboratories). Then, wells were washed with PBS-T (PBS with 0.05% Tween-20) and blocked with 300 l PBS-T containing 1% BSA for 1 h at room temperature. ECM and control wells (no ECM and blocked with BSA) were further incubated 1 h at room temperature with solutions of murine PDGF-BB (Peprotech), IL-1Ra (R&D Systems), or PIGF₁₂₃₋₁₄₁-fused proteins at concentrations ranging from 0 to 100 nM (50 μl in PBS-T containing 0.1% BSA; PROKEEP tubes, Watson bio lab). Then, wells were washed 3 times with PBS-T and bound PDGF-BB and IL-1Ra variants were detected using biotinylated antibodies in PBS-T containing 0.1% BSA. Antibodies used were from PDGF-BB DuoSet ELISA (R&D Systems, DY8464) for PDGF-BB and IL-1ra/IL-1F3 DuoSet ELISA (R&D Systems, DY480) for IL-1Ra. To calculate the dissociation constants (KD) specific-binding values were fitted with a one site specific binding model using A₄₅₀ nm=Bmax*[growth factors or IL-1Ra variants]/(KD+[growth factors or IL-1Ra variants]).

human plasma fibronectin [9] = target: T3, human plasma fibronectin; test: as above
Experimental: as §1

human fibrinogen [10] = target: T1, human fibrinogen; test: as above
Experimental: as §1

human vitronectin [11] = target: T4, human vitronectin; test: as above
Experimental: as §1

human plasma fibronectin [12] = target: T3, human plasma fibronectin; test: ELISA; GST-fused fragment at 100 nM on coated ECM protein, anti-GST detection
Experimental: (§2) ELISA plates (96-Well Medium Binding, Greiner bio-one) were coated with solutions of 100 nM of human plasma fibronectin (Sigma), human vitronectin (Peprotech), human tenascin C (R&D Systems), or human fibrinogen (Enzyme Research Laboratories) in PBS for 1 h at 37° C. Wells were washed with washing buffer (PBS-T, PBS with 0.05% Tween-20) and blocked with 1% BSA in PBS-T for 1 h at room temperature. Then, wells were incubated with 100 nM of GST-fused PIGF fragments (in PBS-T with 0.1% BSA) for 1 h at room temperature. GST (100 nM) was used as negative control. Wells were washed 3 times with washing buffer and incubated with 0.1 μg/ml of HRP-conjugated antibody against GST (GE Healthcare, RPN1236V) in PBS-T with 0.1% BSA for 45 min at room temperature. Wells were washed 3 times with PBS-T and detection was done with tetramethylbenzidine substrate and measurement of the absorbance at 450 nm.

human fibrinogen [13] = target: T1, human fibrinogen; test: as above
Experimental: as §2

human vitronectin [14] = target: T4, human vitronectin; test: as above
Experimental: as §2

T2 sequence (P24821 23-2201 limits assumed): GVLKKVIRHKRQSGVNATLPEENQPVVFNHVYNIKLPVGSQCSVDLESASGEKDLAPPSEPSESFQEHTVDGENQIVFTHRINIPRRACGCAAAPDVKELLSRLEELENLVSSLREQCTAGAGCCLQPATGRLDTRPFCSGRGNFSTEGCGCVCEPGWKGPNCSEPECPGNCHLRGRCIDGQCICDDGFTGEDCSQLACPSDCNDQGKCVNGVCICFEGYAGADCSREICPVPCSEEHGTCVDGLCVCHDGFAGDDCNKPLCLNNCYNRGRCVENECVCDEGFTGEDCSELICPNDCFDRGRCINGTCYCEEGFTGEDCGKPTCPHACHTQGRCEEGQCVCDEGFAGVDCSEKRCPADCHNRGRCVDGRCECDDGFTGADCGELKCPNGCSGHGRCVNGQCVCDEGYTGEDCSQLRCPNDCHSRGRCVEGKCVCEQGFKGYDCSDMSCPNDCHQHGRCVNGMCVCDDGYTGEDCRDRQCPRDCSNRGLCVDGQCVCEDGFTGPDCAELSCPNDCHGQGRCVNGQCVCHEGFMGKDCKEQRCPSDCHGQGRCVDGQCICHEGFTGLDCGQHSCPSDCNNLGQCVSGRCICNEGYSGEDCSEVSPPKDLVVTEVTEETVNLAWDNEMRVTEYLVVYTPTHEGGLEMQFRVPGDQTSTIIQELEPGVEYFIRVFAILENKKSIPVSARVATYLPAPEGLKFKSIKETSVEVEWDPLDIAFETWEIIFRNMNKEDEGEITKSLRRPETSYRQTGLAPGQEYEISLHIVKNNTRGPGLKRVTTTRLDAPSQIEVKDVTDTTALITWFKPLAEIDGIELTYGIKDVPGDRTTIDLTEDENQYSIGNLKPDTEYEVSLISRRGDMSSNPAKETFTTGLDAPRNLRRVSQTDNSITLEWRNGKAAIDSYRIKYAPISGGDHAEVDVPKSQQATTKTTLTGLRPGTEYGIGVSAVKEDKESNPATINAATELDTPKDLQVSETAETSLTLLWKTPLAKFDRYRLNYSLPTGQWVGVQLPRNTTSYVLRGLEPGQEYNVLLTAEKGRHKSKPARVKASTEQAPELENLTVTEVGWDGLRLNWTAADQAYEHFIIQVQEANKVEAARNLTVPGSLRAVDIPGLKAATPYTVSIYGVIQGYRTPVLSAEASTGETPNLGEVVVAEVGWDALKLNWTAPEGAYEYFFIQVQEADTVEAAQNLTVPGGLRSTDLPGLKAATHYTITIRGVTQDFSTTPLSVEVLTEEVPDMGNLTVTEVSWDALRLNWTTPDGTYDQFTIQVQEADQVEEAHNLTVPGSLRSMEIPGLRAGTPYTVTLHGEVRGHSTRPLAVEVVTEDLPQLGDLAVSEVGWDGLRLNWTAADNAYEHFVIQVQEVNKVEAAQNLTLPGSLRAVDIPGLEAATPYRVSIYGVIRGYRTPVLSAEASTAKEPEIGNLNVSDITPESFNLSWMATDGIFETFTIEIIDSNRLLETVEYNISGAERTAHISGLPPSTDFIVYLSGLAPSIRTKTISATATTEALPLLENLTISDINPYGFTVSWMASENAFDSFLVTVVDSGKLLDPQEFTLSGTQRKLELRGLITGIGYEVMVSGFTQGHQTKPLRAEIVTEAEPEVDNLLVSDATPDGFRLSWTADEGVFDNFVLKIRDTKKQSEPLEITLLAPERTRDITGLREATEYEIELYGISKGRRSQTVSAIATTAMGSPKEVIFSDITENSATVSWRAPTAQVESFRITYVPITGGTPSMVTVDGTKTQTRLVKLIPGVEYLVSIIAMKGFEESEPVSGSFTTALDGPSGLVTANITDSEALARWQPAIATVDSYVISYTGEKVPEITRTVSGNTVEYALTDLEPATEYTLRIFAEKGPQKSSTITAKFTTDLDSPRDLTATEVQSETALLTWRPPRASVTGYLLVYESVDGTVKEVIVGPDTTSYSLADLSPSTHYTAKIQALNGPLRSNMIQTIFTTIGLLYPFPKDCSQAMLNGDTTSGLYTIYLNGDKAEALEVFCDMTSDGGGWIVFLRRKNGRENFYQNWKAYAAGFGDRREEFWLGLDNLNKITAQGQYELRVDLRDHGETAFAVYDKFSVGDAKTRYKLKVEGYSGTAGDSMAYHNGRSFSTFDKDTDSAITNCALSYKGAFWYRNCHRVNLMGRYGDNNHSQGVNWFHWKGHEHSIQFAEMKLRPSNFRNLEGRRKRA
T4 sequence (P04004 20-478 limits assumed): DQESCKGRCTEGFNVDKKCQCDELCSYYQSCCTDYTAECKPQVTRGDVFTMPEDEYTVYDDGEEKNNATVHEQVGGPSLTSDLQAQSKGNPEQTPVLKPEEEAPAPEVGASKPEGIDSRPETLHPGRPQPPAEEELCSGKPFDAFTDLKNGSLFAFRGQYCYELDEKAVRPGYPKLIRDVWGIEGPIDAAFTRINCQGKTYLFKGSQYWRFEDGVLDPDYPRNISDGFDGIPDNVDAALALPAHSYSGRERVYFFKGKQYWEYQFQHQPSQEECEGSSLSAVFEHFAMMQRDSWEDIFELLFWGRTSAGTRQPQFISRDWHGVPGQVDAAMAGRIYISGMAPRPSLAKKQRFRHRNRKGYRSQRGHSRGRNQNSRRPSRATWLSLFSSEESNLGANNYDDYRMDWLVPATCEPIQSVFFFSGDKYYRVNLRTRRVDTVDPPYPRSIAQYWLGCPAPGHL
T3 sequence (P02751 other isoform, or with tags, fused parts or gaps limits assumed): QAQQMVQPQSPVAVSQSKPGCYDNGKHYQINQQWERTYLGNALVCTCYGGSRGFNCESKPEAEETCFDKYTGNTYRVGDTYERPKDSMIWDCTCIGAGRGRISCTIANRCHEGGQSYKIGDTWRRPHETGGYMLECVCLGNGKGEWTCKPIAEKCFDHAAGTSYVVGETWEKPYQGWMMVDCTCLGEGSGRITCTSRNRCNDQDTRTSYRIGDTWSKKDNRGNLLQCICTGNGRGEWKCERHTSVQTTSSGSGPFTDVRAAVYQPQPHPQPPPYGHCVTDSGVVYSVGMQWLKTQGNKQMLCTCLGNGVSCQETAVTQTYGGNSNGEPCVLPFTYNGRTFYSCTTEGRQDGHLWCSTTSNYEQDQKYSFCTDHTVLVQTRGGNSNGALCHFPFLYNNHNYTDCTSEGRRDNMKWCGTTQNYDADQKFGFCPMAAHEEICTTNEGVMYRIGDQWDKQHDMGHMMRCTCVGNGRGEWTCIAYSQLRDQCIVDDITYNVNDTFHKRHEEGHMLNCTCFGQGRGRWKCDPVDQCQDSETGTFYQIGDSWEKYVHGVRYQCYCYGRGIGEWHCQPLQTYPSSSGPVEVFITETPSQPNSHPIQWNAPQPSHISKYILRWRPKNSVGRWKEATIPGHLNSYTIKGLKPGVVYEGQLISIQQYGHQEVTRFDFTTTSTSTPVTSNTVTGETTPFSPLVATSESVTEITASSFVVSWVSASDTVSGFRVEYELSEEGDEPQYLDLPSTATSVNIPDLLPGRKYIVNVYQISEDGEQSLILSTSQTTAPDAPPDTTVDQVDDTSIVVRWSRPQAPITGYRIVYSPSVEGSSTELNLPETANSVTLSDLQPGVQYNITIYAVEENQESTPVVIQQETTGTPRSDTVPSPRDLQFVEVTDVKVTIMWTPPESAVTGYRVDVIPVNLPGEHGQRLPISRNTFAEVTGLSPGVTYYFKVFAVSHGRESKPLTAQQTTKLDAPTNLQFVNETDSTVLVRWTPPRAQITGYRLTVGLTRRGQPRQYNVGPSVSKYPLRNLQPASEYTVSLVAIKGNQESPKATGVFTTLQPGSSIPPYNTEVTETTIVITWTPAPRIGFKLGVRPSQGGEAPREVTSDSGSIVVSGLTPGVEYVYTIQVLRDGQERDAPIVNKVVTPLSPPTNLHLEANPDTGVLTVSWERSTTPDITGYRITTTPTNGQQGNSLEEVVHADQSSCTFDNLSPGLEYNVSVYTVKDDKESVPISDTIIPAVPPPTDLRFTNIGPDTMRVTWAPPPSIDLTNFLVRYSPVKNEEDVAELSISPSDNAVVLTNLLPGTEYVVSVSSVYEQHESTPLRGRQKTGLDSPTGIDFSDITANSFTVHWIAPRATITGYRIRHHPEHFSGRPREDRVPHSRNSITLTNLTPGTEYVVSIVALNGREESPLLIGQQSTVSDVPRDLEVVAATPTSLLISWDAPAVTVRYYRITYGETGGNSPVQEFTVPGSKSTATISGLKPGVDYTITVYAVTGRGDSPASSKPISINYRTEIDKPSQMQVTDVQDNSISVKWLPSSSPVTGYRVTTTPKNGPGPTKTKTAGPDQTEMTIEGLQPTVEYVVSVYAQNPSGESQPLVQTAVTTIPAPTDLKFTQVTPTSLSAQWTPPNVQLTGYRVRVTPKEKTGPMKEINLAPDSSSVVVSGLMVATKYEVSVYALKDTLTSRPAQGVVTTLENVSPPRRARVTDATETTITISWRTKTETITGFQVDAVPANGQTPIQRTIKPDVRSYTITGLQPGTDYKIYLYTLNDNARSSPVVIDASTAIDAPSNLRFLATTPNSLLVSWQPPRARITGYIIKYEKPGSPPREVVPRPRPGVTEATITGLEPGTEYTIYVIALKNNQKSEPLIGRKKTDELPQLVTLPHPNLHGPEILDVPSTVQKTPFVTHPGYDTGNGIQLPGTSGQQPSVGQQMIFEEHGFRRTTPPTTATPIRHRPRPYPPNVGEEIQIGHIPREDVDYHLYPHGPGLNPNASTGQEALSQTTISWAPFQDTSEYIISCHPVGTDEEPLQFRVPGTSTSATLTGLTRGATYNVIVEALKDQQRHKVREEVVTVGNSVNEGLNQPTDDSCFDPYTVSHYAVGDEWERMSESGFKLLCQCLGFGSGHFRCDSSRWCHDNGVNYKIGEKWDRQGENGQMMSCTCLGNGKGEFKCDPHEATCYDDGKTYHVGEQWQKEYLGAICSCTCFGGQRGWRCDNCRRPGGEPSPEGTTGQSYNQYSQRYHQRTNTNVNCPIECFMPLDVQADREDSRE

Binder | Kd (human plasma fibronectin [2]) | Kd (human vitronectin [4]) | Kd (human tenascin C [8]) | Kd (human plasma fibronectin [9]) | Kd (human fibrinogen [10]) | Kd (human vitronectin [11]) | also measured
amphiregulin (AREG) (ligand, UniProt P15514 101-198, looked up) SVRVEQVVKPPQNKTESENTSDKPKRKKKGGKNGKNRRNRKKKNPCNAEFQNFCIHGECKYIEHLEAVTCKCQQEYFGERCGEKSMKTHSMIDSSLSK | 8.6 nM | 13.8 nM |  |  |  |  | Kd (human tenascin C [1]): 36.8 nM; Kd (human fibrinogen [3]): 8.2 nM
RKKKGGKNGKNRR (also: fused to GST (vector linker letters not given here), letters not given here, Cloned into pGEX6P-1, expressed in E. coli BL21, and purified on GSTrap and His-tag columns; not shown: GST encoded by the expression vector pGEX6P-1; a His tag is implied by purification on a His-tag HP column) [AREG126-138 fragment (GST-fused construct from pGEX6P-1)] |  |  |  |  |  |  | binding result (human plasma fibronectin [5]): binds; binding result (human fibrinogen [6]): binds; binding result (human vitronectin [7]): binds
IL-1Ra (murine wild-type interleukin-1 receptor antagonist) (ligand, also called wild-type IL-1Ra; IL-1 receptor antagonist) MRPSGKRPCKMQAFRIWDTNQKTFYLRNNQLIAGYLQGPNIKLEEKIDMVPIDLHSVFLGIHGGKLCLSCAKSGDDIKLQLEEVNITDLSKNKEEDKRFTFIRSEKGPTTSFESAACPGWFLCTTLEADRPVSLTNTPEEPLIVTKFYFQEDQ |  |  | 113 nM | 129 nM | 663 nM | 73.2 nM | 
neurturin (NRTN) (ligand, UniProt Q99748 96-197, looked up) ARLGARPCGLRELEVRVSELGLGYASDETVLFRYCAGACEAAARVYDLGLRRLRQRRRLRRERVRAQPCCRPTAYEDEVSFLDAHSRYHTVHELSARECACV | 50.1 nM | 27.6 nM |  |  |  |  | 
Placenta growth factor-2 (PIGF-2) (ligand) LPAVPPQQWALSAGNGSSEVEVVPFQEVWGRSYCRALERLVDVVSEYPSEVEHMFSPSCVSLLRCTGCCGDENLHCVPVETANVTMQLLKIRSGDRPSYVELTFSQHVRCECRPLREKMKPERRRPKGRGKRRREKQRPTDCHLCGDAVPRR | 11.6 nM | 13.9 nM |  |  |  |  | Kd (human tenascin C [1]): 16.6 nM; Kd (human fibrinogen [3]): 9.9 nM
PDGF-BB (murine wild-type platelet-derived growth factor-BB) (ligand, UniProt P31240 82-190, looked up, also called wild-type PDGF-BB) SLGSLAAAEPAVIAECKTRTEVFQISRNLIDRTNANFLVWPPCVEVQRCSGCCNNRNVQCRASQVQMRPVQVRKIEIVRKKPIFKKATVTLEDHLACKCETIVTPRPVT |  |  | 94.3 nM | 67.5 nM | 206 nM | 32.1 nM | 
PDGF-BB/PIGF123-141 (other, not shown: 6x histidine tag at the N-terminus) SLGSLAAAEPAVIAECKTRTEVFQISRNLIDRTNANFLVWPPCVEVQRCSGCCNNRNVQCRASQVQMRPVQVRKIEIVRKKPIFKKATVTLEDHLACKCETIVTPRPVTRRRPKGRGKRRREKQRPTD |  |  | 25 nM | 17.7 nM | 16.7 nM | 1.4 nM | 
RRLRQRRRLRRE (also: fused to GST (vector linker letters not given here), letters not given here, Cloned into pGEX6P-1, expressed in E. coli BL21, and purified on GSTrap and His-tag columns; not shown: GST encoded by the expression vector pGEX6P-1; a His tag is implied by purification on a His-tag HP column) [NRTN146-157 fragment (GST-fused construct from pGEX6P-1)] |  |  |  |  |  |  | binding result (human plasma fibronectin [5]): binds; binding result (human fibrinogen [6]): binds; binding result (human vitronectin [7]): binds
IL-1Ra/PIGF123-141 (other) MNHKVHHHHHHMRPSGKRPCKMQAFRIWDTNQKTFYLRNNQLIAGYLQGPNIKLEEKIDMVPIDLHSVFLGIHGGKLCLSCAKSGDDIKLQLEEVNITDLSKNKEEDKRFTFIRSEKGPTTSFESAACPGWFLCTTLEADRPVSLTNTPEEPLIVTKFYFQEDQRRRPKGRGKRRREKQRPTD |  |  | 20.7 nM | 21.9 nM | 43.5 nM | 0.7 nM | 
RRRPKGRGKRRREKQRPTD-6xHis (not fully specified (N-terminus); also: fused to GST (vector linker letters not given here), Expressed in E. coli BL21 (DE3), purified on GSTrap and then HisTrap, and used at 100 nM in the ELISA; not shown: glutathione S-transferase (GST) encoded by the expression vector pGEX6P-1; histidine tag (6xHis) added at the C-terminus of the fragment) [GST-fused PIGF123-141 fragment] |  |  |  |  |  |  | binding result (human plasma fibronectin [12]): binds; binding result (human fibrinogen [13]): binds; binding result (human vitronectin [14]): binds
